Consider two molecules from US20260356956 (published 2026).

The experiment has as its target T1, mouse P-selectin (mouse, UniProt Q01102).
T1 chain: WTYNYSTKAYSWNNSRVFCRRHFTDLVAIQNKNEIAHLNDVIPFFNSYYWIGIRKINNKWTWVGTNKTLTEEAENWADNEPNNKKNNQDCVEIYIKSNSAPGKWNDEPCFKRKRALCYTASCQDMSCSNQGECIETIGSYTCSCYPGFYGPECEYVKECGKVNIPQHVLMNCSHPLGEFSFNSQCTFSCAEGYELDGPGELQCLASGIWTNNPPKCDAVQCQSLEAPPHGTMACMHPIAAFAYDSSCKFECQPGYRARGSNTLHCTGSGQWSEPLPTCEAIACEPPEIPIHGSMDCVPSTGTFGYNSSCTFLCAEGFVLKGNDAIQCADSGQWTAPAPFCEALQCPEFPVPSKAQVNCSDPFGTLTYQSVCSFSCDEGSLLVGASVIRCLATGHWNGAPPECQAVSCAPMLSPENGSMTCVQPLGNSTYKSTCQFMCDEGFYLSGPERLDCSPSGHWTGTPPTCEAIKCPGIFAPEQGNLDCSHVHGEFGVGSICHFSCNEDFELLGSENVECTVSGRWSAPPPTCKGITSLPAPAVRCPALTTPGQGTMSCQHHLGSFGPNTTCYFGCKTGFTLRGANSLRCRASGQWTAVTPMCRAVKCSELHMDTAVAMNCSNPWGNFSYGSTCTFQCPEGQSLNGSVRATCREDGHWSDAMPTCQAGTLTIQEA
Briefly: SPR, 25C.

B1: NB.PSelscFv-Crry (2.3scFv-Crry, non-blocking) (antibody)
chain: MSVPTQVLGLLLLWLTDARCQIQLVLSGPELKKPGESVKISCKASGYTFTTYGMSWVKQAPGKGLKWMGWINTSSGVPTYADDFKGRFAFSLETSASTAYLQINNLKNEDTATYFCARGGGYYGAYYFYYWGQGTTLTVSSGGGGSGGGGSGGGGSDIQMTQSPASLSASVGETVTITCRTSDNINSYLAWYLQRQGKSPQLLVYNAKTLTEGVPSRFSGSGSGTQFSLKINSLQPEDFGSYYCQHHYGPPPTFGGGTKLEIKGGGGSGGGGSCPAPSQLPSAKPINLTDESMFPIGTYLLYECLPGYIKRQFSITCKQDSTWTSAEDKCIRKQCKTPSDPENGLVHVHTGIQFGSRINYTCNQGYRLIGSSSAVCVITDQSVDWDTEAPICEWIPCEIPPGIPNGDFFSSTREDFHYGMVVTYRCNTDARGKALFNLVGEPSLYCTSNDGEIGVWSGPPPQCIELNKCTPPPYVENAVMLSENRSLFSLRDIVEFRCHPGFIMKGASSVHCQSLNKWEPELPSCFKGVICRLPQEMSGFQKGLGMKKEYYYGENVTLECEDGYTLEGSSQSQCQSDGSWNPLLAKCVSRSIIEGRHHHHHH
As for B1, the equilibrium dissociation constant (Kd) stood at 630 nM.

B2: B.PSelscFv-Crry (2.12scFv-Crry, blocking) (antibody)
chain: MPMGSLQPLATLYLLGMLVASVLAHHHHHHIEGREVKLVESGGGLVQPGSSMKLSCTTSGFTFSDYYMAWVRQVPEKGLEWVANINYDGSSAYYLDSFKSRFTISRDNEKNILYLQMSSLKSEDTATYYCARGDWFVYWGQGTLVTVSAGGGGSGGGGSGGGGSDIQMTQSPSSMSASLGERVTITCKASQDINSYLNWFQQKPGKSPKTLIFRANRLVDGVPSRFSGSGSGQDYSLTISSLEFEDVGIYYCLQYAEFPFTFGSGTKLEIKGGGGSGGGGSCPAPSQLPSAKPINLTDESMFPIGTYLLYECLPGYIKRQFSITCKQDSTWTSAEDKCIRKQCKTPSDPENGLVHVHTGIQFGSRINYTCNQGYRLIGSSSAVCVITDQSVDWDTEAPICEWIPCEIPPGIPNGDFFSSTREDFHYGMVVTYRCNTDARGKALFNLVGEPSLYCTSNDGEIGVWSGPPPQCIELNKCTPPPYVENAVMLSENRSLFSLRDIVEFRCHPGFIMKGASSVHCQSLNKWEPELPSCFKGVICRLPQEMSGFQKGLGMKKEYYYGENVTLECEDGYTLEGSSQSQCQSDGSWNPLLAKCVSRSIIEGRHHHHHH
In the case of B2, the dissociation constant (Kd) was found to be 333 nM.
